In article PMC5552345 (PLoS Pathogens, 2017):
Positions count from the first letter of the chain named. Names and notes keep the numbering of the source.

Legend:
[1] = target: T1, (NANP)6 peptide (Plasmodium falciparum CSP repeat, …); assay: ITC; 25°C; titration of 2A10 FAB or complete 2A10 with antigen; independent binding sites model; single titration each; details: both partners purified
T1 construct: printed as (NANP)6, written out here; a short segment of the antigenic NANP-repeat region of P. falciparum CSP; also called synthetic peptide antigen (NANP)6; source: synthetic peptide
T1 chain: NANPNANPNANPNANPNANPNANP

[2] = target: T2, (NANP)9 peptide (Plasmodium falciparum CSP repeat, …); assay: ELISA; recombinant 2A10, germline precursor, hybrids and their point mutants tested on the (NANP)9 peptide; details in S1 Methods
T2 construct: printed as (NANP)9, written out here; NANP repeat of P. falciparum CSP
T2 chain: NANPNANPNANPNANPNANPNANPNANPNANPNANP

B1: 2A10 antigen-binding fragment (FAB) (Fab, V domains shown)
VH: QIQLVQSGPELKKPGETVKISCKASGYTFTNYGINWVKQAPGKGLKWMGWINTITEEPTFAEEFTGRFAFSLETSASTAYLQINNLKNEDTATYFCARGSEFGRLVYWGQGASVTVSS
VL: DIQMTQTTSSLSASLGDRVTISCSASQGISNYLNWYQQKPDGTVKLLIFYTSTLYSGVPSRFSGSGSGTDYSLTISNLEPEDIATYYCQQYSRFPYVFGGGTKLEIK
notes: heavy chain part of the 2A10 FAB; as the heavy chain of m1; light chain of the 2A10 FAB; as the light chain of m1; also called 2A10 FAB; 2A10 FAB fragment; source: purified
Ka [1]: 2.37e+06 M⁻¹
Kd [1]: 420 nM
dH [1]: -113 kJ/mol complex
stoichiometry N [1]: 2.16 FAB per Ag

B2: predicted germline precursor to the 2A10 antibody (2A10 gAb) (antibody, V domains shown)
VH: B1 VH with I34M, I54N, E56G, F60Y, T65K, V106D
VL: B1 VL with F49Y, T53S, Y55H, R93K, F94L, V97T
notes: predicted germline heavy chain (gHC) of 2A10 by V-quest; the 2A10 heavy chain carries 6 mutations against it; predicted germline light chain (gLC) of 2A10 by V-quest; the 2A10 light chain carries 7 mutations against it; also called gHC + gLC; source: HEK293T cells, expressed
binding result [2]: binds

B3: recombinant antibody corresponding to the 2A10 mAb (antibody, V domains shown)
VH: B1 VH
VL: B1 VL
notes: 2A10 heavy chain (mHC), as the heavy chain of m1; FAB part in the deposited structures; 2A10 light chain (mLC), as the light chain of m1; in the deposited structures; also called mHC + mLC; source: HEK293T cells, expressed
binding result [2]: binds

B4: hybrid antibody: 2A10 light chain (mLC) paired with germline heavy chain (gHC) (antibody, V domains shown)
VH: B1 VH with I34M, I54N, E56G, F60Y, T65K, V106D
VL: B1 VL
notes: as the heavy chain of m17 (gHC); as the light chain of m7; also called mLC + gHC; source: HEK293T cells, expressed
binding result [2]: binds

B5: 2A10 gAb with light chain L114F (antibody, V domains shown)
VH: B1 VH with I34M, I54N, E56G, F60Y, T65K, V106D
VL: B1 VL with F49Y, T53S, Y55H, R93K, V97T
notes: as the heavy chain of m17 (gHC); as the light chain of m17 (gLC); source: HEK293T cells, expressed
binding result [2]: binds

B6: 2A10 gAb with light chain T117V (antibody, V domains shown)
VH: B1 VH with I34M, I54N, E56G, F60Y, T65K, V106D
VL: B1 VL with F49Y, T53S, Y55H, R93K, F94L
notes: as for B5
binding result [2]: binds

B7: 2A10 gAb with light chain L114F and T117V (antibody, V domains shown)
VH: B1 VH with I34M, I54N, E56G, F60Y, T65K, V106D
VL: B1 VL with F49Y, T53S, Y55H, R93K
notes: as the heavy chain of m17 (gHC); as the light chain of m17 (gLC); also called L114F and T117V introduced simultaneously; source: HEK293T cells, expressed
binding result [2]: binds

B8: 2A10 gAb with light chain H68Y (antibody, V domains shown)
VH: B1 VH with I34M, I54N, E56G, F60Y, T65K, V106D
VL: B1 VL with F49Y, T53S, R93K, F94L, V97T
notes: as for B5
binding result [2]: binds

B9: hybrid antibody mLC + gHC with heavy chain M39I (antibody, V domains shown)
VH: B1 VH with I54N, E56G, F60Y, T65K, V106D
VL: B1 VL
notes: as the heavy chain of m17 (gHC); as the light chain of m7; source: HEK293T cells, expressed
binding result [2]: binds

B10: hybrid antibody mLC + gHC with heavy chain N59I (antibody, V domains shown)
VH: B1 VH with I34M, E56G, F60Y, T65K, V106D
VL: B1 VL
notes: as for B9
binding result [2]: binds

B11: hybrid antibody mLC + gHC with heavy chain T67F (antibody, V domains shown)
VH: B1 VH with I34M, I54N, E56G, T65K, V106D
VL: B1 VL
notes: as for B9
binding result [2]: binds
